Reference: PMC6800434, “Assessment of glucagon receptor occupancy by Positron Emission Tomography in non-human primates” (Scientific Reports, 2019)
Several values for one entry are separate records, joined by “and”; a condition that tells them apart may be missing. Identical values can stand only once. Positions of bridges follow the written chain, without caps; N, C: chain ends. Non-standard residues stand in square brackets, D forms with d. Residues, ends and D or L forms follow the SMILES beside them. *: point of attachment. DO3A(CH2CH2SO2CH2CH2) = O=C(O)CN1CCN(CCS(=O)(=O)CC*)CCN(CC(=O)O)CCN(CC(=O)O)CC1; Ala(4-thiazolyl) = N[C@@H](Cc1cscn1)C(=O)O

Key:
[1] = Human predicted radiation dosimetry extrapolated from NHP biodistribution (OLINDA/EXM 1.1)
Procedure: The predicted dosimetry of [^68Ga]Ga-DO3A-S01-GCG in human males was estimated based on the in vivo biodistribution in NHPs as captured by dynamic PET examinations. The baseline PET examinations in NHP 2–7 (n=6) were averaged for the dosimetry analysis. […] However, the uptake in the brain in NHP is likely negligible based on observations in rat (5) as well as a whole-body PET/CT examination performed on NHP1 90–120 minutes post [^68Ga]Ga-DO3A-S01-GCG administration.
The dosimetry calculations were performed as described previously for [^68Ga]Ga-DO3A-VS-Cys^40-Exendin4[4] and [^68Ga]Ga-DO3A-S01-GCG in rat[5].
In brief, dynamic NHP organ uptake as measured by PET and expressed as SUV was normalised to that of human organs (using tissue weights of whole-body adult reference phantoms). The decay-corrected and normalized SUVs were back-corrected to count rates to calculate the actual radiation burden in each tissue. The tissue residence times (MBq-h/MBq) were assessed by trapezoidal approximation of the un-decay corrected human SUV biodistribution data. The tissue washout from the last time point (90 minutes) until infinity was estimated by a single mono-exponential fit.
The estimation of the absorbed dose was performed by the OLINDA/EXM 1.1 software, where the calculations were based on the adult reference male or female phantoms to obtain the absorbed dose estimate in humans (ICRP60). The organ specific doses are reported as mGy/MBq (effective dose as mSv/MBq). The amount of MBq that can be safely administered annually (MBq/year) was calculated for each organ as well as the effective dose, by dividing the limiting dose (10 mSv/year for the effective dose, 150 mGy/year for all tissues except for red marrow with 50 mGy/year) by the dose (mGy/MBq or mSv/MBq).

[2] = In vivo metabolic stability in venous plasma (radio-HPLC); parameters: species or system cynomolgus monkeys; conditions: NHP in vivo, n = 3
Procedure: For NHP 5–7, venous blood samples were taken at 5, 30 and 60 min for assessment of in vivo metabolic stability of [^68Ga]Ga-DO3A-S01-GCG, using HPLC methods described below. The percentage of intact [^68Ga]Ga-DO3A-S01-GCG was plotted against time from administration and fitted to a mono-exponential function.
Blood samples were centrifuged at 4000 rpm for 2 minutes at 4 °C (Beckman Allegra X-22R Centrifuge, Palo Alto, USA). From the plasma, 0.5 ml was taken and an equal volume of acetonitrile was added to precipitate the proteins. The mixture was centrifuged at 13200 rpm at 4 °C for 1 min (Eppendorf 5415 R centrifuge, Eppendorf AG, Hamburg, Germany). The supernatant was filtered through a 0.2 μm nylon membrane (Corning Incorporated, Corning, NY, USA) by centrifugation at 13200 rpm at 4 °C for 1 min. 500 µl of the filtered supernatant was diluted with 1500 µl H2O; thereafter, 30 µl of 0.01 mM unlabelled DO3A-S01-GCG was added to the mixture. The sample preparation recovery was determined by measuring the radioactivity in the plasma, filters and pellet.
HPLC analysis was performed using a binary pump system (Gilson, Middleton, USA). The sample (1.8 ml) was injected using an automated solid phase extraction controller (ASPEC Gilson) connected to a dilutor (Gilson). The separation was performed on an Xbridge Prep BEH130 C18 (peptide separation technology) 250 mm × 10 mm, 5 µm with a 10 × 10 mm C18 security guard from the same supplier. The HPLC system was operated at a flow rate of 6 ml/min. The mobile phase consisted of 0.1% TFA in MilliQ: 0.1% TFA in Acetonitrile. Gradient elution mode was used for the separation (Gradient: 0–7 min: 5–70%, 7–12 min: 70%, 12–13 min: 70–5%, 13–15 min: 5%).
A second method was developed with a lesser gradient, to determine if any metabolites were co-eluting with the DO3A-S01-GCG peak. A UV detector (Gilson) was used to detect unlabelled DO3A-S01-GCG at 220 nm. […] Six fractions were collected, and the radioactivity in the fractions was measured by a well-type scintillation counter. […]

rat spleen sections = experiment: In vitro autoradiography of spleen sections; assay type: binding, Sprague Dawley rat; conditions: 10 µM GCG or 1 µm DO3A-S01-GCG precursor, 60 min RT, n = 3
Procedure: (§1) Splenic binding of [^68Ga]Ga-DO3A-S01-GCG was previously observed in rat in vivo[5]. This assay was performed to elucidate if splenic binding in human and NHP in vivo would be expected.
(§2) Spleen tissue was collected post-mortem from the NHP and Sprague Dawley rat. Biopsies from donor human spleen were obtained from Uppsala Biobank (sample collection 827) and approved by local ethical review board (Drn 2016/465).
(§3) The splenic biopsies were processed to 10 µm frozen tissue sections by a cryotome. The sections were pre-incubated in phosphate-buffered saline (PBS) (pH 7.4, 1% Bovine Serum Albumin (BSA)) for 10 min at room temperature (RT). Then, the sections were incubated with 5 nM [^68Ga]Ga-DO3A-S01-GCG in […] PBS (pH 7.4, 1% BSA), either alone or in the presence of 10 µM GCG or 1 µm DO3A-S01-GCG precursor for 60 min at RT.
(§4) After incubation, the sections were washed three times, first with assay buffer (PBS pH 7.4 1% BSA) and then twice with PBS for 1 minute. Sections were carefully dried at 37 °C and then exposed against a digital phosphorimager plate, together with a 20 µl reference from the buffer calibrated against a gamma-counter to enable quantification to fmol bound radioligand/mm^3. The phosphorimager plates were scanned using a Cyclone Plus Phosphor imager (Perkin Elmer) at 600 dpi, and the resulting autoradiograms analysed by ImageJ (NIH, Bethesda). […]

human spleen sections = experiment: In vitro autoradiography of spleen sections; assay type: binding; conditions: 10 µM GCG or 1 µm DO3A-S01-GCG precursor, 60 min RT, n = 3
Procedure: as §1, §2, §3, §4

NHP spleen sections = experiment: In vitro autoradiography of spleen sections; assay type: binding; conditions: 10 µM GCG or 1 µm DO3A-S01-GCG precursor, 60 min RT, n = 3
Procedure: as §1, §2, §3, §4

[3] = extrapolated from NHP 2-7 baseline PET (n = 6)

| Compound | Human predicted absorbed dose, heart wall (myocardium) [1, 3] [mGy/MBq] | Human predicted absorbed dose, kidneys [1, 3] [mGy/MBq] | Human predicted absorbed dose, liver [1, 3] [mGy/MBq] | Human predicted absorbed dose, red marrow [1, 3] [mGy/MBq] | Human predicted effective dose [1, 3] [µSv/MBq] | Annual limit of administered radioactivity, effective dose limiting ([1]; limit 10 mSv/year) [MBq] | Annual exposure limit from red marrow absorbed dose ([1]; limit 50 mGy/year) [MBq] | Annual administration allowed by critical organ kidney ([1]; limit 150 mGy/year) | Intact radioligand in venous plasma ([2]; 5 minutes after administration) [%] | Intact radioligand in venous plasma ([2]; 30 minutes after administration) [%] | Intact radioligand in venous plasma ([2]; 60 minutes after administration) [%] | Blocking of [68Ga]Ga-DO3A-S01-GCG binding in rat spleen sections by co-incubation (rat spleen sections) | Effect of co-incubation on [68Ga]Ga-DO3A-S01-GCG binding in human spleen sections (human spleen sections) | Effect of co-incubation on [68Ga]Ga-DO3A-S01-GCG binding in NHP spleen sections (NHP spleen sections) |
| --- | --- | --- | --- | --- | --- | --- | --- | --- | --- | --- | --- | --- | --- | --- |
| CC[C@H](C)[C@H](NC(=O)[C@H](Cc1ccccc1)NC(=O)[C@H](CCC(=O)O)NC(=O)[C@@H]1CCCCNC(=O)CC[C@H](NC(=O)[C@H](CC(=O)O)NC(=O)[C@H](CC(C)C)NC(=O)[C@H](CCC(N)=O)NC(=O)[C@H](CCCCN)NC(=O)[C@H](CO)NC(=O)[C@H](Cc2ccc(O)cc2)NC(=O)[C@H](CC(=O)O)NC(=O)[C@H](CO)NC(=O)[C@@H](NC(=O)[C@H](Cc2ccccc2)NC(=O)[C@@H](NC(=O)CNC(=O)[C@H](CCC(N)=O)NC(=O)[C@@H](CO)NC(=O)[C@@H](N)Cc2cscn2)[C@@H](C)O)[C@@H](C)O)C(=O)N[C@@H](CCC(N)=O)C(=O)N[C@@H](CCCNC(=N)N)C(=O)N[C@@H](C)C(=O)N1)C(=O)N[C@@H](CCC(=O)O)C(=O)N[C@@H](Cc1c[nH]c2ccccc12)C(=O)N[C@@H](CC(C)C)C(=O)N[C@@H](CC(C)C)C(=O)N[C@@H](C)C(=O)N[C@H](C(=O)NCC(=O)N1CCC[C@H]1C(=O)N[C@@H](CCC(=O)O)C(=O)N[C@@H](CO)C(=O)NCC(=O)N[C@@H](C)C(=O)N1CCC[C@H]1C(=O)N1CCC[C@H]1C(=O)N1CCC[C@H]1C(=O)N[C@@H](CO)C(=O)N[C@@H](CSCCS(=O)(=O)CCN1CCN(CC(=O)O)CCN(CC(=O)O)CCN(CC(=O)O)CC1)C(N)=O)[C@@H](C)O [[^68Ga]Ga-DO3A-S01-GCG, metal not drawn] (H-[Ala(4-thiazolyl)][dS]QGTFTSDYSKQLDEQRAKEFIEWLLATGPESGAPPPSC(DO3A(CH2CH2SO2CH2CH2))-NH2; lactam 16-20) | 0.10 | 0.29 | 0.049 | 0.039 | 20.6 | 485 | > 1000 | 519 MBq and > 500 MBq | 95.9 ± 1.2 | 89.0 ± 2.7 | 80.3 ± 3.3 |  |  |  |
| glucagon |  |  |  |  |  |  |  |  |  |  |  | could be blocked | not affected | not affected |
